Data: PMC6506533, “Initial state of DNA-Dye complex sets the stage for protein induced fluorescence modulation”

Target: FEN1 (human, UniProt P39748 1-380)
Assay: fluorescence anisotropy; rotational correlation time decreases on binding; RPA reaction buffer with 50 mM KCl or FEN1 reaction buffer (full composition not in material); steady-state measurements at room temperature; proteins in excess over Kd (Kd stated only as low nM)
Details: protein: recombinant; tags: none left (His6-SUMO cleaved); label: 5' flap tip pCy3; nicked double flap: 3 strands, 5' flap 4 nt, 3' flap 1 nt

Sequence of FEN1 (P39748 whole entry): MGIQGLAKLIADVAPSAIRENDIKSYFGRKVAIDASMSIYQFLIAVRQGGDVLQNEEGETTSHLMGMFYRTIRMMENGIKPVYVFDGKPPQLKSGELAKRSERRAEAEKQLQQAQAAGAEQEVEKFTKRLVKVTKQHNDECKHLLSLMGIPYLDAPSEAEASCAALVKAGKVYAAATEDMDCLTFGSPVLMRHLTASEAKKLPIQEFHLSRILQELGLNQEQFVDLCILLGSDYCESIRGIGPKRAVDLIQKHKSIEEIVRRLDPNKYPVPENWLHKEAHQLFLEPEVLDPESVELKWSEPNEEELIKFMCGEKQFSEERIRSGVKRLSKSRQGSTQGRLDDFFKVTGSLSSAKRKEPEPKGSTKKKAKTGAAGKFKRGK

B1: DF-4,1 pCy3 (structured_DNA)
DNA 1: GATGACGAGCAGTCCTAACTGGAAATCTAGCTCTGTGGAG
DNA 2: CTCCACAGAGCTAGATTTCCC
DNA 3: TTTAAGTTAGGACTGCTCGTCATC
  binding result: binds
